# Measured values as given in the supplement of paper PMC9112550, “Optimization of the antimicrobial peptide Bac7 by deep mutational scanning” (BMC Biology, 2022).
# Tested on: Escherichia coli TOP10
# Assay: shrunken log2 fold change of peptide-encoding DNA abundance (4.5 h post-induction vs induction); higher = less antimicrobial activity (less host growth inhibition)
# Details: time post-induction: 4.5 h; library: site-saturation at positions 5, 18, 19, 20
# 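Note: peptides expressed intracellularly from a pBAD plasmid library in pooled LB shake-flask culture, induced with 0.3% L-arabinose, DNA abundance read by NGS, three biological replicates, DESeq2 with apeglm shrinkage.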
row,Sequence,shrunken log2 fold change
1,RRIRRRPPRLPRPRPRPTLGPRP,0.138
2,RRIRMRPPRLPRPRPRPATHPRP,-0.0207
3,RRIRHRPPRLPRPRPRPRNRPRP,0.672
4,RRIRMRPPRLPRPRPRPSKGPRP,-0.071
5,RRIRIRPPRLPRPRPRPPGYPRP,0.0184
6,RRIRQRPPRLPRPRPRPNTRPRP,-0.0754
7,RRIRSRPPRLPRPRPRPDRWPRP,0.0855
8,RRIRGRPPRLPRPRPRPPYTPRP,0.145
9,RRIRKRPPRLPRPRPRPGRVPRP,0.58
10,RRIRARPPRLPRPRPRPPVCPRP,0.276
11,RRIRIRPPRLPRPRPRPHPWPRP,-0.319
12,RRIRCRPPRLPRPRPRPDSHPRP,-0.199
13,RRIRERPPRLPRPRPRPFYWPRP,-0.158
14,RRIRVRPPRLPRPRPRPSGDPRP,-0.251
15,RRIRHRPPRLPRPRPRPAVSPRP,-0.378
16,RRIRVRPPRLPRPRPRPHSCPRP,-0.0621
17,RRIRQRPPRLPRPRPRPYHLPRP,-0.00174
18,RRIRSRPPRLPRPRPRPMLVPRP,-0.0894
19,RRIRSRPPRLPRPRPRPAEMPRP,0.125
20,RRIRGRPPRLPRPRPRPWRLPRP,-0.0196
21,RRIRFRPPRLPRPRPRPHLAPRP,-0.0213
22,RRIRCRPPRLPRPRPRPWPPPRP,1.08
23,RRIRPRPPRLPRPRPRPMKTPRP,-0.0446
24,RRIRHRPPRLPRPRPRPNMHPRP,1.05
25,RRIRQRPPRLPRPRPRPIHQPRP,-0.15

row,Sequence,shrunken log2 fold change
1,RRIRGRPPRLPRPRPRPNGMPRP,0.106
2,RRIRHRPPRLPRPRPRPVMEPRP,0.105
3,RRIRSRPPRLPRPRPRPDTKPRP,-0.248
4,RRIRKRPPRLPRPRPRPQGQPRP,-0.00726
5,RRIRSRPPRLPRPRPRPEHQPRP,0.163
6,RRIRGRPPRLPRPRPRPECVPRP,1.72
7,RRIRPRPPRLPRPRPRPPQTPRP,0.362
8,RRIRGRPPRLPRPRPRPVHCPRP,0.0385
9,RRIRWRPPRLPRPRPRPTTVPRP,0.11
10,RRIRTRPPRLPRPRPRPKPMPRP,0.0287
11,RRIRHRPPRLPRPRPRPIIYPRP,-0.295
12,RRIRCRPPRLPRPRPRPHRCPRP,-0.128
13,RRIRARPPRLPRPRPRPPTVPRP,0.468
14,RRIRNRPPRLPRPRPRPDPYPRP,-0.319
15,RRIRVRPPRLPRPRPRPKREPRP,0.225
16,RRIRWRPPRLPRPRPRPCSNPRP,-0.0711
17,RRIRHRPPRLPRPRPRPYTTPRP,-1.14
18,RRIRGRPPRLPRPRPRPFIHPRP,0.0282
19,RRIRTRPPRLPRPRPRPDPHPRP,-0.00783
20,RRIRCRPPRLPRPRPRPIYNPRP,-0.761
21,RRIRHRPPRLPRPRPRPRTYPRP,-0.749
22,RRIRRRPPRLPRPRPRPIFFPRP,0.261
23,RRIRCRPPRLPRPRPRPMKYPRP,-0.82
24,RRIRNRPPRLPRPRPRPMCAPRP,-0.253
25,RRIRFRPPRLPRPRPRPTQMPRP,0.149

row,Sequence,shrunken log2 fold change
1,RRIRYRPPRLPRPRPRPECSPRP,-0.15
2,RRIRERPPRLPRPRPRPLWYPRP,-0.287
3,RRIRIRPPRLPRPRPRPQWQPRP,-0.182
4,RRIRKRPPRLPRPRPRPDLYPRP,-0.00937
5,RRIRLRPPRLPRPRPRPQEWPRP,0.0562
6,RRIRSRPPRLPRPRPRPECWPRP,1.03
7,RRIRSRPPRLPRPRPRPGRMPRP,0.167
8,RRIRERPPRLPRPRPRPAYNPRP,-0.449
9,RRIRFRPPRLPRPRPRPWSMPRP,-0.548
10,RRIRRRPPRLPRPRPRPLQVPRP,0.000182
11,RRIRFRPPRLPRPRPRPFWEPRP,-0.193
12,RRIRVRPPRLPRPRPRPMHHPRP,-0.257
13,RRIRCRPPRLPRPRPRPIRWPRP,0.034
14,RRIRSRPPRLPRPRPRPSFPPRP,-0.557
15,RRIRVRPPRLPRPRPRPLYEPRP,-0.168
16,RRIRMRPPRLPRPRPRPAVRPRP,0.835
17,RRIRLRPPRLPRPRPRPLRPPRP,0.525
18,RRIRVRPPRLPRPRPRPCWLPRP,-0.0153
19,RRIRYRPPRLPRPRPRPRWHPRP,-0.124
20,RRIRMRPPRLPRPRPRPLAIPRP,0.173
21,RRIRMRPPRLPRPRPRPRRTPRP,1.76
22,RRIRLRPPRLPRPRPRPIFSPRP,-0.182
23,RRIRTRPPRLPRPRPRPINNPRP,-0.793
24,RRIRGRPPRLPRPRPRPHYDPRP,-0.0292
25,RRIRHRPPRLPRPRPRPAMCPRP,-0.148
